Laboratory results: the supplement of paper PMC10567573
± gives the standard deviation.

Experiment: protein stability index of a GFP-peptide fusion (GPS, HEK-293T) (PSI 1-6); higher = more stable
[1] = treatment: DMSO, c terminus: a fixed tail appended
[2] = treatment: MLN4924 1 uM, 8 h, c terminus: a fixed tail appended
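Further: 24-mer peptide tiles fused after GFP, lentivirally expressed, FACS-sorted into six equal bins by GFP/DsRed ratio, decoded by Illumina sequencing, PSI is the read-weighted mean bin number.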

Row | Sequence | protein stability index [1] | protein stability index [2] | protein stability index (treatment: DMSO, c terminus: native) | protein stability index (treatment: MLN4924 1 uM, 8 h, c terminus: native)
1 | RELWLKFHEVGTEMIITKAGRRMF [TBX5] | 2.31 ± 0.23 | 2.37 ± 0.31 | – | –
2 | TAPRTLPSCLACNRQCLCSAESMV [SPRY1] | 2.75 ± 0.34 | 2.59 ± 0.48 | – | –
3 | THSRMGSIMSTGIVQGSSGAQGSG [CARM1] | 4.48 ± 0.1 | 4.26 ± 0.34 | – | –
4 | HDESPGNNVVDISVPPTTDGQKPN [RAB11B] | 5.46 ± 0.3 | 5.57 ± 0.12 | – | –
5 | GDESSLLLNAASTVARPVFTEYQA [RHOBTB3] | 3.57 ± 0.29 | 3.52 ± 0.29 | – | –
6 | WHEIRQGRLPRIPQVLSQEFTELL [WEE1] | 2.42 ± 0.22 | 2.38 ± 0.23 | – | –
7 | NMHLNLRPFDCPVCNKKFKMKHHL [ZBTB22] | 2.4 ± 0.2 | 2.81 ± 0.35 | – | –
8 | KRTAQAIEPYITNFFNQVLMLGKT [PDS5B] | 1.95 ± 0.24 | 2.29 ± 0.085 | – | –
9 | EELNNGEPQTEHQQESESEIDSVP [MIA2] | 5.6 ± 0.24 | 5.52 ± 0.43 | – | –
10 | DGEILFSLLQKVSPVAHKHLSRQK [TBC1D10A] | 2.36 ± 0.11 | 2.48 ± 0.37 | – | –
11 | SFDYEQFHELQMQVTASDSGDPPL [PCDHGA10] | 4.89 ± 0.21 | 4.9 ± 0.15 | – | –
12 | RIFRLPNNWYYISPRLTFQCLEDL [SLA] | 2.53 ± 0.28 | 2.38 ± 0.39 | – | –
13 | LKELQAIAERLGCTLPQLAIAWCL [KCNAB2] | 2.29 ± 0.74 | 2.27 ± 0.25 | – | –
14 | YIWEKSIGNLVKILHGTRGELLLD [RBBP5] | 2.65 ± 0.52 | 3.09 ± 0.29 | – | –
15 | AALNAHSDCCRKLLSSGFEIDTPD [ANKRD44] | 3.61 ± 0.24 | 3.59 ± 0.42 | – | –
16 | PGTPPSYSSRTPGTPGTPSYPRTP [MAP2] | 4.72 ± 0.39 | 4.55 ± 0.34 | – | –
17 | KKIFKSHLKSSRNSTSVKKKSSRN [P2RY14] | 3.87 ± 0.32 | 4.22 ± 0.41 | – | –
18 | PRLVSETAERKQEQKTGTEAEAAD [MFSD9] | 5.77 ± 0.12 | 5.61 ± 0.25 | – | –
19 | RTLKSYLGLTNQSRRYNRKEPAEF [ZNF649] | 3.09 ± 0.31 | 3.05 ± 0.48 | – | –
20 | NEKIYELRVMETKPDKAVSIIECD [UFD1] | 4.33 ± 0.11 | 4.28 ± 0.16 | – | –
21 | VVIRDIDERAMELLIDFAYTSQIT [KLHL20] | 3.19 ± 0.55 | 2.67 ± 0.57 | – | –
22 | NIVEYLIQEQPGQEQVAGGEAQPG [FEM1A] | 4.33 ± 0.25 | 4.15 ± 0.47 | – | –
23 | HDPLWRRHCKKYWLISEEEKTQKN [FBXO3] | 3.56 ± 0.45 | 3.99 ± 0.34 | – | –

Row | Sequence | protein stability index [1] | protein stability index [2] | protein stability index (treatment: DMSO, c terminus: native) | protein stability index (treatment: MLN4924 1 uM, 8 h, c terminus: native)
24 | SYAHGWMFQGWNCGDYFPDGITNG [CPN1] | 2.35 ± 0.18 | 2.27 ± 0.17 | – | –
25 | WKVLTWLRYTLWIPLYPLGCLAEA [HACD3] | 2.78 ± 0.74 | 2.55 ± 0.54 | – | –
26 | HTLNNLVEKLLREEAEGARWTSYR [TRIM35] | 2.48 ± 0.2 | 2.57 ± 0.19 | – | –
27 | MSVILSMDNNRNLDLDSIIDEVRT [KRT71] | 2.61 ± 0.22 | 2.52 ± 0.59 | – | –
28 | TLCDVTLRVEQKDFPAHRIVLAAC [KLHL12] | 2.21 ± 0.52 | 1.83 ± 0.53 | – | –
29 | REALVLRSVRVRLLLSFWKETDPL [PLD5] | 2.58 ± 1.1 | 2.38 ± 0.39 | – | –
30 | SPAGELPKTVQQPTESEPVTINIQ [MATN2] | 5.29 ± 0.31 | 5.24 ± 0.38 | – | –
31 | TSTFEATSEGTLELQQRNPKAERL [ZNF232] | 5.2 ± 0.2 | 5.42 ± 0.14 | – | –
32 | EEVRQLLETMARNEVIADINCKGR [OSBPL1A] | 3.16 ± 0.33 | 3.01 ± 0.46 | – | –
33 | SSYVASIVDGGESRSEKGDSSRY [RBMY1A1] | – | – | 4.35 ± 0.28 | 4.27 ± 0.35
34 | PKTPMDGADCGIQWWNAVFIMLLI [LYSMD4] | 2.5 ± 0.62 | 2.39 ± 0.41 | – | –
35 | SQMPPPAGGTSDDPEPSGPHLPRV [SCNN1D] | 5.23 ± 0.31 | 5.43 ± 0.12 | – | –
36 | PIFQDSQDTEVFSWSDNERSSSRI [FAM104B] | 4.34 ± 0.55 | 4.41 ± 0.26 | – | –
37 | TECEGDIQKNYECANFGDQGITMG [LOXL2] | 4.94 ± 0.11 | 5.04 ± 0.19 | – | –
38 | LVAKELGQTGTRLTPADKAEHMKR [AUP1] | 4.41 ± 0.4 | 4.29 ± 0.21 | – | –
39 | QGIGSKIIKKVAEVALDKGCSQFR [SAT2] | 2.44 ± 0.68 | 2.27 ± 0.36 | – | –
40 | SSSSSASSSASSSFSEEGAVGYSS [NFE2L1] | 5.25 ± 0.16 | 5.32 ± 0.13 | – | –
41 | LCSRQDLYPALKGVNTVFHCASPP [NSDHL] | 2.66 ± 0.32 | 2.79 ± 0.25 | – | –
42 | DNAVKNHWNSTIKRKVDTGGFLSE [MYBL2] | 3.87 ± 0.2 | 3.71 ± 0.14 | – | –
43 | LTLQVLVAGNPQDTRLRYSFFVPR [ADAMTS4] | 3.13 ± 0.4 | 3.19 ± 0.44 | – | –
44 | TVGFLDEAIQPYRDRLRSRLEALS [TRIM15] | 2.66 ± 0.27 | 2.77 ± 0.39 | – | –
45 | AGADLKERAKMSSSEVGPFVSKIR [AUH] | 3.21 ± 0.21 | 4.069 ± 0.006 | – | –
46 | YETESETESEIESETDFETEPETA [GNAS] | 5.2 ± 0.17 | 5.22 ± 0.15 | – | –

Row | Sequence | protein stability index [1] | protein stability index [2] | protein stability index (treatment: DMSO, c terminus: native) | protein stability index (treatment: MLN4924 1 uM, 8 h, c terminus: native)
47 | RERIQILKTSEVTQHLPRECLPEN [PTPN9] | 4.46 ± 0.19 | 4.36 ± 0.31 | – | –
48 | NVIDRMKESSPSGSKSQRYSGAYG [CHCHD3] | 4.13 ± 0.4 | 4.13 ± 0.15 | – | –
49 | NSTSVKKKSSRNIFSIVFVFFVCF [P2RY14] | 2 ± 0.64 | – | – | –
50 | APLIQPCHSESGKSRLVQLPPVAV [PCMTD2] | 3.13 ± 0.21 | 3.29 ± 0.38 | – | –
51 | EELRKFSSLCYKQRIKSQERETEA [MOG] | 4.47 ± 0.28 | 4.22 ± 0.076 | – | –
52 | ILKRRSDEALERCQILELLNAELE [CCDC89] | 2.68 ± 0.34 | 3 ± 0.42 | – | –
53 | VKRKIRDESLCPQHHEALSLFCYE [TRIM39] | 2.38 ± 0.11 | 2.73 ± 0.3 | – | –
54 | CEVWACNLDEEMKKIRQVIRKYNY [CNOT7] | 2.28 ± 0.19 | 2.23 ± 0.14 | – | –
55 | TDQPPLVQAIFSGDPEEIRMLIHK [ANKRD44] | 3.31 ± 0.28 | 3.48 ± 0.3 | – | –
56 | RLDIVKYLVENNANISIANKYDNT [FEM1B] | 2.5 ± 0.17 | 2.64 ± 0.4 | – | –
57 | VRQLERENAELESRIQEWYEFQIP [KRT36] | 3.41 ± 0.16 | 3.43 ± 0.42 | – | –
58 | KGLNARMMRGLSYSLTTSSTHKSS [RAB40A] | 3.39 ± 0.28 | 3.52 ± 0.32 | – | –
59 | FPEFCSSPSPPVEVKIEEPVSMEM [INTS3] | 4.65 ± 0.32 | 4.82 ± 0.27 | – | –
60 | GGVGGSSRARSASSPRGMVRVCDL [ANKRD17] | 3.97 ± 0.28 | 3.97 ± 0.36 | – | –
61 | FVAFAAKLWSFFIYLLRRQIRTVI [CTDNEP1] | 3.29 ± 0.16 | 3.3 ± 0.31 | – | –
62 | KSKHAPRGTHLWEFIRDILIHPEL [ELF3] | 2.6 ± 0.75 | 2.26 ± 0.36 | – | –
63 | ERLQKEEEKRRREEEERLRREEEE [ACBD3] | 5.67 ± 0.26 | 5.59 ± 0.23 | – | –
64 | TTTDHSSNPGPVPGSSSGPVLGSS [SPAG8] | 5.08 ± 0.16 | 5.13 ± 0.09 | – | –
65 | AQQLEEEGPMEEEEAQPMAAPEGK [EID1] | 5.68 ± 0.29 | 5.53 ± 0.35 | – | –
66 | SSGNTVLLLILCMQHSFPEPGRLY [TMEM192] | 3.1 ± 0.73 | 3.09 ± 0.53 | – | –
67 | CQFRPPVRVNDGGGSHPSRPNSRH [VDR] | 4.55 ± 0.34 | 4.77 ± 0.076 | – | –
68 | MVANILNNEAFMNQEITKAFHVRR [RHOBTB2] | 2.53 ± 0.27 | 2.5 ± 0.27 | – | –
69 | IIQFVESGDDKNSNYFSMDSMEGK [TRIM29] | 3.46 ± 0.24 | 3.71 ± 0.29 | – | –

Row | Sequence | protein stability index [1] | protein stability index [2] | protein stability index (treatment: DMSO, c terminus: native) | protein stability index (treatment: MLN4924 1 uM, 8 h, c terminus: native)
70 | ATKPSHWCSVAYWEHRTRVGRLYA [SMAD6] | 2.62 ± 0.55 | 1.91 ± 0.17 | – | –
71 | CEALINRVSAMRDYRGPDCRYLNF [MIA2] | 2.3 ± 0.33 | 2.53 ± 0.14 | – | –
72 | YFITLGTDLAQQQGGGNGQQQQAM [KCNA4] | 3.04 ± 0.18 | 2.95 ± 0.67 | – | –
73 | HIRHLGWNPDARYSEHFLQEAKLL [GLT8D2] | 2.49 ± 0.17 | 2.79 ± 0.4 | – | –
74 | SRSSILVQHQRVHTGEKPYKCLEC [ZNF24] | 3.54 ± 0.19 | 3.65 ± 0.23 | – | –
75 | SLKLIKRLYVDKSLNLSTEFISST [SERPINB5] | 2.38 ± 0.26 | 2.11 ± 0.15 | – | –
76 | VEYKDIASIHWDWKIALLFVAFAL [SLC35F2] | 2.81 ± 0.8 | 2.74 ± 0.32 | – | –
77 | FGASAAGGLSPVTNLTVTMDQLQG [CDC25A] | 3.65 ± 0.27 | 3.7 ± 0.46 | – | –
78 | PSLGDSLESIPSLSQSPEPGRRGD [RTN2] | 5.32 ± 0.45 | 5.48 ± 0.12 | – | –
79 | VLCPECENPETDLHVNPKKQTIGN [EIF5] | 4.3 ± 0.3 | 4.54 ± 0.15 | – | –
80 | QDFPVKKRKKLSTWKQELLKLMDR [ZNF75A] | 2.5 ± 0.11 | 2.53 ± 0.17 | – | –
81 | QLCEKAPKEATVMCEQCDVFYCDP [TRIM9] | 4.33 ± 0.081 | 4.33 ± 0.25 | – | –
82 | SPAPLDTCPSSSTASSISSSGGSS [DYRK1B] | 5.33 ± 0.16 | 5.35 ± 0.088 | – | –
83 | SSSSSSQAPGQPPGNQAEHGAVTV [ZBTB22] | 5.12 ± 0.15 | 5.08 ± 0.24 | – | –
84 | KEDAKGKSEEELAECFRIFDRNAD [TNNC2] | 5.54 ± 0.24 | 5.71 ± 0.12 | – | –
85 | GADYPVDGLPDLGHAQDLMDGLPP [CTNNB1] | 4.95 ± 0.24 | 5.17 ± 0.068 | – | –
86 | LGSPQHSPSTRGSPNRSLPSPGVL [ATF4] | 4.45 ± 0.23 | 4.45 ± 0.22 | – | –
87 | MPSPCSCMSFNPETRRLSIGLDNG [WDFY2] | 3.19 ± 0.13 | 3.29 ± 0.25 | – | –
88 | NESMKAYHNSPAYLAYINAKSRAE [SMARCE1] | 4.42 ± 0.27 | 4.26 ± 0.49 | – | –
89 | PSVEQAADSLDFDETFLATSFLQH [FOXJ1] | 4.43 ± 0.18 | 4.41 ± 0.4 | – | –
